Laboratory results taken from patent publication US20220332804A1 (CSL INNOVATION, published 2022).
Where a chain is given by its changes, count along the chain named. Names may count otherwise.

Experiments:
[1] = target: T1, human complement C2 zymogen (human, UniProt P06681 21-752); experiment: SPR kinetics, captured antibody, analyte huC2 (so in the source), pH 7.3
T1 construct: also called huC2; human C2
T1 sequence: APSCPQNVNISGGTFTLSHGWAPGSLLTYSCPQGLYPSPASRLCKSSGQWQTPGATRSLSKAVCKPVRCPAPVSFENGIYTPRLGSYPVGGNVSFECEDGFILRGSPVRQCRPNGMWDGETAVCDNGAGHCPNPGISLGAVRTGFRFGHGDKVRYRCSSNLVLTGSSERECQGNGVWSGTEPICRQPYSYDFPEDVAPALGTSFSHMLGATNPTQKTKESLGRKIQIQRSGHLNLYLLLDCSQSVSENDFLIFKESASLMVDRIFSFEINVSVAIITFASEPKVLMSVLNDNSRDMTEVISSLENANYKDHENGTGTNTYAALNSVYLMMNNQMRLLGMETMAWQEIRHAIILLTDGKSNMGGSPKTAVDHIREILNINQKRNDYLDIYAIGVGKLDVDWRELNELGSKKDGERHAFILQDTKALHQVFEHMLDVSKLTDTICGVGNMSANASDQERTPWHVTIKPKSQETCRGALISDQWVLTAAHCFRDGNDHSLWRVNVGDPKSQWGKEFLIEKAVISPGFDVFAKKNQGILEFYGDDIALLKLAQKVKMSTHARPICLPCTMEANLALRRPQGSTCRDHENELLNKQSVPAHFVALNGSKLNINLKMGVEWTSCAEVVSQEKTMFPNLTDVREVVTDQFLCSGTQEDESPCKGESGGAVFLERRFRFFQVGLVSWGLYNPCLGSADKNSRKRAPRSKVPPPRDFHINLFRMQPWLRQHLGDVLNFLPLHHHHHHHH
Experimental: (§1) Surface plasmon resonance (SPR, Biacore) was used for all binding affinity analyses. In brief, goat anti-human IgG was directly immobilised onto the carboxymethyl dextran surface of CM5 sensorchips to approximately 12,000 RU using standard NHS/EDC chemistry at pH 5. The immobilised antibody surface was pre-conditioned with ten injections of polyclonal human IgG (Privigen 60 s) prepared at 1 μg/mL. Ligands (anti-C2 mAbs) were captured at the beginning of each cycle as described below. An adjacent spot or flow cell in which only Polyclonal IgG was capture was used as a reference surface. The goat anti-human IgG Fc antibody surface was regenerate in 100 mM H3PO4, injected for 45 seconds at the end of each cycle. Experiments were performed at 37° C. and the flow rate of each experiment was kept constant at 30 μL/min.

[2] = target: T1, human complement C2 zymogen; experiment: SPR kinetics, captured antibody, analyte huC2 20 mM Ca^2+ (so in the source), pH 7.3
Experimental: as §1

[3] = target: T1, human complement C2 zymogen; experiment: SPR kinetics, captured antibody, analyte huC2 2000 mM Ca^2+ (so in the source), pH 7.3
Experimental: as §1

[4] = target: T1, human complement C2 zymogen; experiment: SPR kinetics, captured antibody, analyte huC2 0 mM Ca^2+, pH 7.3
Experimental: as §1

[5] = target: T2, cynomolgus monkey FcRn/β2m (cynomolgus monkey, UniProt Q8SPV9 24-297; Q8SPW0 21-119, limits assumed); experiment: SPR, immobilised antibody, cyno FcRn/b2m analyte, pH 6.0
T2 construct: injected in solution over immobilised antibody; also called Cyno FcRn/β2m
T2 sequence (Q8SPV9 24-297 limits assumed, chain 1 of 2): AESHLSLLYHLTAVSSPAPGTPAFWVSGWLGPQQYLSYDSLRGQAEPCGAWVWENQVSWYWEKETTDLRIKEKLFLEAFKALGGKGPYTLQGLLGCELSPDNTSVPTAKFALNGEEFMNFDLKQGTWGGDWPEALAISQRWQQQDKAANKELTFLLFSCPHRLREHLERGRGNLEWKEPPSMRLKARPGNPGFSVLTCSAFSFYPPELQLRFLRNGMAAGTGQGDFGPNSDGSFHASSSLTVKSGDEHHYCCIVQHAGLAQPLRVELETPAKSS
T2 sequence (Q8SPW0 21-119 limits assumed, chain 2 of 2): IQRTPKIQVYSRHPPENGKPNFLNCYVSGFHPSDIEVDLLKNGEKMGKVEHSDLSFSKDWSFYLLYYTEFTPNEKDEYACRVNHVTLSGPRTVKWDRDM
Experimental: (§2) Anti-C2 mAbs (1 μg/mL at pH 5) were immobilized on a carboxylmethyldextran (CM5) sensorchip surface using standard EDC/NHS chemistry. Human and Cyno FcRn/β2m (40 μM) were prepared in running buffer (10 mM HEPES, 150 mM NaCl, 10 mM MES adjusted to either pH 6 or pH 7.3) and injected on the immobilized anti-C2 surface at concentrations ranging from 0.078 to 40 μM, prepared in two-fold dilutions in running buffer. Association and dissociation phases were monitored for 180 and 600 seconds, respectively. […] Double referenced sensorgrams were fitted to either a 1:1 kinetic model (pH 6), including a term for mass transport limitation or to a 1:1 steady state model (pH 7.3) where responses at the end of the association phase were plotted against respective concentrations.
(§3) Binding to both human and cynomolgus monkey FcRn was tested using the SPR methods described above.

[6] = target: T1, human complement C2 zymogen; experiment: SPR kinetics, captured antibody, analyte huC2 200 mM Ca^2+ (so in the source), pH 7.3
Experimental: as §1

[7] = target: T1, human complement C2 zymogen; experiment: SPR steady state, captured antibody, analyte huC2 2000 mM Ca^2+ (so in the source), pH 6.0
[8] = target: T1, human complement C2 zymogen; experiment: SPR steady state, captured antibody, analyte huC2 200 mM Ca^2+ (so in the source), pH 6.0
[9] = target: T1, human complement C2 zymogen; experiment: SPR steady state, captured antibody, analyte huC2 0 mM Ca^2+, pH 6.0
[10] = target: T2, cynomolgus monkey FcRn/β2m; experiment: SPR, immobilised antibody, cyno FcRn/b2m analyte, pH 7.3
Experimental: as §2, §3

[11] = target: T1, human complement C2 zymogen; experiment: SPR steady state, captured antibody, analyte huC2 20 mM Ca^2+ (so in the source), pH 6.0
[12] = target: T1, human complement C2 zymogen; experiment: SPR kinetics, captured antibody, analyte huC2 2000 mM Ca^2+ (so in the source), pH 7.3; remark: listed apart in the source
Experimental: as §1

[13] = target: T1, human complement C2 zymogen; experiment: SPR steady state, captured antibody, analyte huC2 0 mM Ca^2+, pH 6.0; remark: listed apart in the source
[14] = target: T1, human complement C2 zymogen; experiment: SPR kinetics, captured antibody, analyte huC2 200 mM Ca^2+ (so in the source), pH 7.3; remark: listed apart in the source
Experimental: as §1

[15] = target: T1, human complement C2 zymogen; experiment: SPR steady state, captured antibody, analyte huC2 2000 mM Ca^2+ (so in the source), pH 6.0; remark: listed apart in the source
[16] = target: T1, human complement C2 zymogen; experiment: SPR steady state, captured antibody, analyte huC2 20 mM Ca^2+ (so in the source), pH 6.0; remark: listed apart in the source
[17] = target: T1, human complement C2 zymogen; experiment: SPR kinetics, captured antibody, analyte huC2 20 mM Ca^2+ (so in the source), pH 7.3; remark: listed apart in the source
Experimental: as §1

[18] = target: T1, human complement C2 zymogen; experiment: SPR steady state, captured antibody, analyte huC2 200 mM Ca^2+ (so in the source), pH 6.0; remark: listed apart in the source
[19] = target: T1, human complement C2 zymogen; experiment: SPR kinetics, captured antibody, analyte huC2 0 mM Ca^2+, pH 7.3; remark: listed apart in the source
Experimental: as §1

[20] = target: T1, human complement C2 zymogen; experiment: SPR kinetics, captured antibody, analyte huC2 2 mM Ca^2+ (so in the source), pH 7.3
Experimental: as §1

B1: RF16-226 YEY (Fc mutations M252Y, N286E, N434Y) (antibody, human IgG4 S228P, lambda)
heavy: EVQLVQSGAEVKKPGESLKISCKGSGYSFTSYWIGWVRQMPGKGLEWMGIIYPGDSDTRYSPSFQGQVTISADKSISTAYLQWSSLKASDTAMYYCARRFSYSSGWDMWGQGTLVTVSSASTKGPSVFPLAPCSRSTSESTAALGCLVKDYFPEPVTVSWNSGALTSGVHTFPAVLQSSGLYSLSSVVTVPSSSLGTKTYTCNVDHKPSNTKVDKRVESKYGPPCPPCPAPEFLGGPSVFLFPPKPKDTLYISRTPEVTCVVVDVSQEDPEVQFNWYVDGVEVHEAKTKPREEQFNSTYRVVSVLTVLHQDWLNGKEYKCKVSNKGLPSSIEKTISKAKGQPREPQVYTLPPSQEEMTKNQVSLTCLVKGFYPSDIAVEWESNGQPENNYKTTPPVLDSDGSFFLYSRLTVDKSRWQEGNVFSCSVMHEALHYHYTQKSLSLSLGK
light: SYELTQPPSVSVSPGQTARITCSGDALTSKYVAWYQQKSGLAPLLVIYEDTRRPSGIPAKFSGSSSGSVATLTISGAHGDDEADYYCYSTDASGHQRVFGGGTKLTVLSQPKAAPSVTLFPPSSEELQANKATLVCLISDFYPGAVTVAWKADGSPVKAGVETTKPSKQSNNKYAASSYLSLTPEQWKSHRSYSCQVTHEGSTVEKTVAPTECS
- kon [1]: 538000 M⁻¹ s⁻¹
- Kd [2]: 8.8 nM
- koff [2]: 0.00516 s⁻¹
- kon [2]: 585000 M⁻¹ s⁻¹
- Kd [3]: 10.7 nM
- koff [3]: 0.00573 s⁻¹
- Kd [4]: 8.7 nM
- koff [4]: 0.00521 s⁻¹
- kon [4]: 601000 M⁻¹ s⁻¹
- Kd [5]: 19 nM
- Kd [6]: 9.2 nM
- koff [6]: 0.00527 s⁻¹
- kon [6]: 573000 M⁻¹ s⁻¹
- Kd [7]: 105 nM
- Kd [8]: 86.9 nM
- Kd [9]: 84 nM
- Kd [10]: 2200 nM
- Kd [11]: 81.9 nM

B2: RF16-226 YPY (Fc mutations M252Y, V308P, N434Y) (antibody, human IgG4 S228P, lambda)
heavy: B1 heavy with E285N, V307P
light: B1 light
- Kd [12]: 10.2 nM
- koff [12]: 0.00584 s⁻¹
- Kd [13]: 87.3 nM
- Kd [14]: 8.8 nM
- koff [14]: 0.00539 s⁻¹
- kon [14]: 612000 M⁻¹ s⁻¹
- Kd [15]: 102 nM
- Kd [16]: 83.1 nM
- Kd [5]: 8.7 nM
- Kd [17]: 8.4 nM
- koff [17]: 0.00526 s⁻¹
- kon [17]: 626000 M⁻¹ s⁻¹
- Kd [18]: 91.9 nM
- Kd [19]: 8.5 nM
- koff [19]: 0.00493 s⁻¹
- kon [19]: 578000 M⁻¹ s⁻¹
- Kd [10]: 1100 nM
- kon [20]: 572000 M⁻¹ s⁻¹
